Experimental data taken from the nanobody polyreactivity screen of Harvey et al. (2022).

Assay: yeast display, Sf9 membrane polyspecificity reagent, FACS + sequencing; frameworks hold sequencing errors
Outline: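 A synthetic nanobody library was expressed on Saccharomyces cerevisiae BJ5465 by galactose induction for 36–48 hours. The library was stained for 1 hour at 4 °C with 10% biotinylated, detergent-solubilized Sf9 membrane reagent and enriched with streptavidin microbeads before FACS. Low and high (top ~1%) gates were set on anti-HA fluorescence for expression and streptavidin fluorescence for reagent binding, and each polyreactivity label reflects the gate of origin.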

Row | Sequence | polyreactivity (PSR sort gate)
1 | QVQLVESGGGLLQAGGSLRLSCAASVNIFWRYRMGWYRQAPGKERELVAAIRRSGGTTYYADSVKGRFTISRDNAKNTVYFQMNSLKPEDTAVYNCAAGLTVRKFVRFDYWGHGTQVTVSS | low polyreactivity
2 | QVQLVESGRGLVQAGGSLRISCAASGRTFYSYAMGWYRQAPGKERELVAAITSSGGRTYYADSVKGRFTISRDNAKNTVYLQMNSLKPEDTAVYYCNKLRRSPNSQYYYWGQGTQVTVSS | high polyreactivity
3 | QVQLVESGGGLVQAGGSLRLSCAASGFIFGSYAMGWYRQAPGKERELVAAISWSGASTYYADSVKGRFTISRDKAKNTVYLQMNSLKPEDTAVYYCAAVSRYGWYDYWGQGTQVTVSS | high polyreactivity
4 | QVQLVESGGGLVQAGGSLRLSCAASGNTFRWYVMGWYRQAPGKERELVAAITSSGSTTYYADSVKGRFTISRDNAKNTVYLQLNSLKPEDTAVYYCAARNYGPYDYWGQGTQVTVSS | low polyreactivity
5 | QVQLVESGGGLVQAGGSLRLSCAASGSTFAQNAMGWYRQAPGKERELVAAISRRGGSTYYADSVKGRFTISRDNAKNTVYLQMNSLKPEDTAVYYCAADQPVRQHHRDDYWGQGTQVTVSS | low polyreactivity
6 | QVQLVESGGGLVQAGGSLRLSCAASGFIFSFYVMGWYRQAPGKERELVAAISTSGASTYYADSVKGRFTISRDNAKNTVYLQMTSLKPEDTAVYYCNVVYRYGGYNYWGQGTQVTVSS | high polyreactivity
7 | HVQQQESGGGLVQAGGSLRLSCAASGNISYSRNMGWYRQAPGKERELVAAIDRGAITYYADSVQGRFTISRDNAKNTVYLQIYSLKPEDTAVYYCAAEYHDRWDHRYWGQGTQVTVSS | high polyreactivity
8 | QVQLVESGGGLVQAGGRLRLSCAASGRTFYYNAMGWYREAPGKERELVATIGGSTYYADSVKGRFTISRDNAKNTVYLQMNSLIPEDTAVYYCAASRYSHYPRYRLTCFYYWGQGTQVTVSS | high polyreactivity
9 | QVQLVESGGGLVQAGGSLRLSCAASGRIFSGNAMGWYRQAPGKERELVANITSSSNTNYADSVKGRFTISRDNAKNTVYLQMNSLKPEDTAVYYCAKSAHNGYSFYGYDYWGQGTQVTVSS | low polyreactivity
10 | QVQLVESGGGLVQAGGSLRLSCAASGGIFLVNDMGWYRQAPGKERELVAAITSGGGTYYADSVKGRFTISRDNAKNTVYLQMNSLKPEDTAVYYCARDTYRQIVSNESYGYWGQGTQVTVSS | low polyreactivity
11 | QVQLVESGGGLVQAGGSLRLSCAASGIIFPGNAMGWYRQAPGKERELVAAISSGGNTKYADSVKGRFTISRDNAKNTGYLQMNSLKPEDTAVYYCAADGASRALYDYWGQGTQVTVSS | high polyreactivity
12 | QDQHVESGGGLVQAGGSLRLSCAASGSTFAWYSMGWYRQAPGKERELVASITSTGSTNYADSVKGRYTISRDNAKNTVYLQMNSLKPVDTAVYYCAAAVRAWYLRLYDYWGQGTQVTVSS | high polyreactivity
13 | QVQLVESGGGLVQAGGSLRLSCAASGIIFRYYAMGWYRQAPGKEREWVAAISSSGVSTYYADSVKGRFTISRDNAKNNVYLQMNSLKPEDTAVYYCAAVTTWRMDYWGQGTQVTVSS | high polyreactivity
14 | QVQLVETGGRLVQAGGSLRLSCAASGFTFWTYAMGWYRQAPGKERELVAAISTSGGSTYYADSVKGRFTISRDNAKNTVYLQMNSLKPEDTAVYYCSAYAIGEHFRARYGYWGQGTQVTVSS | high polyreactivity
15 | QDQLVESGGGLVQAGGSLRLSCAASGRTFGPNAMGWYRQAPGKERELVAAITGGGSTYYADSVKGRFTISRDNAKNTVYLQMNSLKPEDTAVYYCSNRGQGFHFGRDYWGQGTQVTVSS | low polyreactivity
16 | QVQLVESGGGLVQAGGSLRLSCAASGRIFQNYALGWYRQAPGKERELVATISSGVSTYYADSVKGRFTISRDNAKNTVYLQMNSLKPEDTAVYYCAAYVPWFEMDYWGQGTQVTVSS | low polyreactivity
17 | QVQLVESGGGLVQAGGSLRLSCAASGSIFDYYAMGWYRQAPGKERELVAAISRSGSRTYYADSVKGRFTISRDNAKNTVYLQMNSLKPEDTAVYYCNAYLTLPYSNHAYYYWGQGTQVTVSS | high polyreactivity
18 | QVQLVESGGGLVQAGGSLRLSCAASGSIFTHNAMGWYRPAPGKERELVAAISSGGSTYYADSVKGRFTISRDNAKNTVYLQMNSLKPEDTAVYYCAVRQGWYHFRYDYWGQGTQVTVSS | high polyreactivity
19 | QVQIVESGGGLVQAGGSLRLSCAASGSTFYRNAMGWYRQAPGKEREFVATISWNGGNTYYADSVKGRFTISRDNAKNTVYLQMNSVKPEDTAVYYCDARVKYRTSGGTVVSYDYWGQGTQVTVSS | high polyreactivity
20 | QVQLVESGGCLVQAGGSLRLSCAASGIIFSGYAMGWYRQAPGKERELVAAISSRGGGPYYADSVKGRFTISRDNAKKTVYLQMNSLKPEDTAVYYCNRVAFTYNYWGQGTQVTVTS | high polyreactivity
21 | QVQLVASGGGFVQAGGSLRVSCAASGGTILGNAMGWDRQAPGKERELVATITARVGSTYYADSVKGRFTISRDNAKNTVYLQMNSLKPEDTAVYYCAARKVWGYTYGYPYYYWGQGTQVTVSS | high polyreactivity
22 | QVQLVESGGGLVQAGGSLRLSCAASGRTFPEYGMGWYRQAPGKEREFVAAISTRGGSTYYANSVKGRFTISRDNAKNTVYLQMNSLKPEDTAVYYCAKVYDRSGGDYWGQGTQVTVSS | low polyreactivity

Row | Sequence | polyreactivity (PSR sort gate)
23 | QVQLVESGGGLVQAGGSLRLSWAASGRTFDYNAMGWYRQAPGKERELVAAITSSGGSTYYADSVKGRFTISRDNAKNTVYLQMNSLKPEDTAVYYCDTDGQSPYYIYYWGQGTQVTVSS | low polyreactivity
24 | QVQRVESGGGLFQAGGSLRLSCAASGSTFGYYAMGWYRQAPGKERELVPAISGSGTSTNYADSVKGRITISRDNAKNTVYLQMNSLKPEDTAVYYCATRYRYTGGGYYYRGQGTQVTVSS | low polyreactivity
25 | QVQLVESGGGLVQAGGSLRLICAASGSTLYTYAMGWYRQAPGKERELVATISWSGSSTYYADSVKGRFTISRDNAKNTVYLQMNSLKPEDTAVYYCAAPYHYWYRLDYWGQGTQVTVSS | high polyreactivity
26 | QVQLAESGGGLVQAGGSLRLSCAASGRTFGRYVMGWYRQAPGKERELVAAITSSSSSTYADSVKGRFTISRDNAKNTVYLQMNSLKPEDTAVYYCNKRYTSRHRPEYDYWGQGTQVTVSS | high polyreactivity
27 | QVQLVESGGGLVQAGGSLRLSCAASGRIFSYYAMGWYRQAPGKERELVAAITWSGGRTYYADSVKGRFTISRDNAKNTVYLQMNSLKPEDTAVYYCAAQGSRWWGFDYWGQGTQVTVSS | high polyreactivity
28 | QVQLVESGGGLVQAGGSLRLSCAASGIIFGNNAMGWYRQAPGKERELVAAIRWSTGTTYYADSVKGRFTISRDNAKNTVYLQMNSLKPEDTAVYYCAARLRREYGYWGQGTQVTVSS | high polyreactivity
29 | QVQLVESGGGLVQAGGSLRLSCAASGRISLSNAMGWYKQAPGKEREFVAAITKRSDRTYYADSVKGRFTISRDNAKNTVYLQMNSLKPEDTAVYYCAAKPLFGTRDDYWGQGTQVTVSS | low polyreactivity
30 | QVQLVESGGGLVQAGGSLRLSCAASGSTFYANAMGWYRQAPGKERELVAAISRSGGRTYYADSVKGRFTISRDNAKNTVFLQMNSLKPEDTAVYYCAKAYHHSEFDYWGQGTQVTVSS | high polyreactivity
31 | QVQLVESGGGLFQAGGSLRLSCAASGRIFGIYAMGWYRQAPGKERELVAAITRGSTYYADSVKGRFTISRDNAKNTVYLQMNSLKPEDTAVYYCNARPRVPGVLYLYDYLGQGTQVTVSS | high polyreactivity
32 | QVQLVESGGGLVQAGGSLRLSCAASGSTFGTNAMGWSRQAPGKERELVAAITYSGGSTYYADSVKGRFTISRDNAKNTVYVQLNSLKPEDTAVYYCAARGHSSKYLWSYEYYYWGQGTQVTVSS | low polyreactivity
33 | QVQLVESGGGLVQAGGSLRLSCAASGINFTVYAMGWYRQAPGKVRELVATISRRGGNTFYADSVKGRVTISRDNAKKTVYLKMNSLTPEDTAVYYCAARRYVDYRWDYGYWGQGTQVTVSS | high polyreactivity
34 | QVQLVDSGGGLVQAGGSLRLSCAASGLTFRYYAMGWYRQAPGKERELVASISWSGASTYYADSVKGRFTISRDNAKNTVYLQMNSLKPEDTAVYYCNAGYFGSYDYWGQGTQVTVSS | high polyreactivity
35 | QVQLVESGGGLVQAGGSLSLSCAASGRTFYAYAMGWYRQAPGTERELVACIDKSGGSPYYADSVKGRFTISRTMRRYRLFTDEQPETGRYRGLLLRCWCVVLSDIQFWGEFDYDYWGQGTQVTVSS | low polyreactivity
36 | QVQLVESGGGLVQAGGSLSLSCAATGRTFYHYVMGWYRQAPGKERELVAAISVSGGRTYYADSVKGRFTISRDNAKNTVYLQMNSLKPEDTAVYYCNARYGHRVRKEAGLSYYWGQGTQVTVSS | high polyreactivity
37 | QVQLVESGAALVQAGGSLRLSCAASGFTFFTYAMGWYRQATGKDSELVAAITSSGGSTYYADSVKGRFTISRDNAKNTVYLQMNSLNPEDTAVYDCAASVYFWYDYWGQGTQGTVSS | high polyreactivity
38 | QVQRVESVGGLVQAGGRLRLSCAASGRTFVYYTMGWYRQAPGKERELVAAISWNGDDTYYADSVKGRFTISRDNAKNTVYLQMNSLKPEDTAVYYCAKESYTDYDTYYYWGQGTQVTVSS | low polyreactivity
39 | QVQLVESGGGLVQAGGSLRLSCAATGRTFRYYAMGWYRQAPGKERELVAAISSGGSTNYADSVKGRFTISRDNAKNTVYLQMNSLKPEDTAVYYCAALWSGNKFNYWGQGTQVTVSS | low polyreactivity
40 | QVQLVESGGGLVQAGGSLRISCAASGSTLVGKVMGWYRQAPGKERELVADITLSGGSTYYSDSVKGRFTISRDNAKNTVYLQMNSLKPEDTAVYYCNDVFFNYLLEYDYWGQGTQVTVSS | high polyreactivity
41 | QVQLVESGGGLVQAGGSLRLSCAASGSIFRWYDMGWYRQAPGKERELVAAITWSGSTYYADSVKGRFTISRDNAKNTVYLQMNSLKPEDTAVYYCAAGSRYSYAYTMDYWGQGTQVTVSS | high polyreactivity
42 | QVQRVESGGGLVQAGGSLRLSCAASGFILNQYAMGWYRQAPGKASELVAAISNGGSTNYADSVKGRFTISRDNAKNTVYLQMNSLKPEDTAVYYCAKDQSLTYSSLWGYDYWGQGTQVTVSS | low polyreactivity
43 | QVQLVESGGGLGQAGGSLRLSCAASGSIFDINAMGWYRQAPGKERELVAANRENGGDTYYPDSVKGRFTISRDNAKHTVYLQMNSLKPEDTAVYYCAAYSGDQAYQGDYWGQGTQVTVSS | low polyreactivity
